The results in this text go back to publication doi:10.1101/2020.04.13.039982 (bioRxiv, 2020).

This test addresses T1, 6His-She1 C-terminal fragment (residues 194 to 338) (S. cerevisiae, UniProt P38200 194-338).
T1 sequence (looked up): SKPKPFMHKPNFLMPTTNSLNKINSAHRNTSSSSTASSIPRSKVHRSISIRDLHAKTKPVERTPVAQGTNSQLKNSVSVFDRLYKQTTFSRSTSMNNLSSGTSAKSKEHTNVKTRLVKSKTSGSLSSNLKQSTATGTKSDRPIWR
Briefly: pull-down.

B1: peptide encompassing the C-terminus of Tub1 (amino acids 415-447), wild-type (peptide)
peptide: not shown
For the molecule B1, the binding result was “binds”.
